In patent US20240182536A1 (MURAL ONCOLOGY, published 2024):

T1: human IL-18 binding protein (human, UniProt O95998 31-194)
T1 sequence (looked up): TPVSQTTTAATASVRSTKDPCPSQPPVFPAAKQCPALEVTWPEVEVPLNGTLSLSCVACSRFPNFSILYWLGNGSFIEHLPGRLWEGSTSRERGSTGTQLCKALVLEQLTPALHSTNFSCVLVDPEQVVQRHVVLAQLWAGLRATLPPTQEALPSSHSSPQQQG

T2: IL-18 receptors on HEK-Blue IL-18 reporter cells (UniProt Q13478 19-541; O95256 20-599, limits assumed)
T2 sequence (looked up) 1: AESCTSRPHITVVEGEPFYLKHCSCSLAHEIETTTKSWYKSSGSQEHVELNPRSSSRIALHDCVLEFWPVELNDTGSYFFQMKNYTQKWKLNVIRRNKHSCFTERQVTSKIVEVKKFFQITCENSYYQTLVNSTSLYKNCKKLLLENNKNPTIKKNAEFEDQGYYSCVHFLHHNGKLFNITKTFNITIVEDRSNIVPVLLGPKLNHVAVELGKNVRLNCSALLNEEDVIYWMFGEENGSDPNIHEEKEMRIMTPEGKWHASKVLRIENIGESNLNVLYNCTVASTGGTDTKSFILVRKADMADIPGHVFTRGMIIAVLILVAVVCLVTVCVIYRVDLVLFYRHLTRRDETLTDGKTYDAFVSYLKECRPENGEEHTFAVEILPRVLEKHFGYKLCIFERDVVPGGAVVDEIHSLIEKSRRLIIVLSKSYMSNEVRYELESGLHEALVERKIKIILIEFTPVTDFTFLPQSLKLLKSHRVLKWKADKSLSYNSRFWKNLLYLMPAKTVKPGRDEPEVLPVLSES
T2 sequence (looked up) 2: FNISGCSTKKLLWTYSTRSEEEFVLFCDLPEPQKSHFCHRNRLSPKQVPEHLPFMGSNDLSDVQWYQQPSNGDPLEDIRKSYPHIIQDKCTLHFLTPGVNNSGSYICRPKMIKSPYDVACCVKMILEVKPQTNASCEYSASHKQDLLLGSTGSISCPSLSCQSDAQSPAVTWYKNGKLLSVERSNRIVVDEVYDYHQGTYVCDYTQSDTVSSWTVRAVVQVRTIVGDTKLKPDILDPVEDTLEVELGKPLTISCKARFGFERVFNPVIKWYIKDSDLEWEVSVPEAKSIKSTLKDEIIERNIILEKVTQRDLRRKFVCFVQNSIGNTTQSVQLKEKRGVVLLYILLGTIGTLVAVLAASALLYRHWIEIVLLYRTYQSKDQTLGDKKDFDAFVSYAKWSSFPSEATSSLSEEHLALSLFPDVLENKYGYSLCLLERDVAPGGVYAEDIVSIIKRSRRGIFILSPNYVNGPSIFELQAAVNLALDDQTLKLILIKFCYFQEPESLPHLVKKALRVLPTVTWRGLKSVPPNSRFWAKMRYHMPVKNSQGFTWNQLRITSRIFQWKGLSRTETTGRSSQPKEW


Experiments:
[1] = target: T1, human IL-18 binding protein; assay: cell-based or functional assay
[2] = target: T2, IL-18 receptors on HEK-Blue IL-18 …; assay: cell-based or functional assay

Binder	HEK-Blue activity, +100 nM BP, DF-10000 [1]	HEK-Blue activity, +100 nM BP, DF-100,000 [1]	HEK-Blue activity, +100 nM BP, DF-1,000,000 [1]	Ratio (-BP/+BP), DF-10000 [1]	Ratio (-BP/+BP), DF-100,000 [1]	Ratio (-BP/+BP), DF-1,000,000 [1]	HEK-Blue activity, No BP, DF-10000 [2]	HEK-Blue activity, No BP, DF-100,000 [2]	HEK-Blue activity, No BP, DF-1,000,000 [2]
yeast display IL-18 variant K53T, S55M, R58K (ligand) YFGKLESKLSVIRNLNDQVLFIDQGNRPLFEDMTDSDMRDNAPRTIFIISMYTDMQPKGMAVTISVKSEKISTLSSENKIISFKEMNPPDNIKDTKSDIIFFQRSVPGHDNKMQFESSSYEGYFLASEKERDLFKLILKKEDELGDRSIMFTVQNED	0.72	0.21	0.17	1.08	0.92	0.72	0.78	0.2	0.12
yeast display IL-18 variant K53T, S55F (ligand) YFGKLESKLSVIRNLNDQVLFIDQGNRPLFEDMTDSDMRDNAPRTIFIISMYTDFQPRGMAVTISVKSEKISTLSSENKIISFKEMNPPDNIKDTKSDIIFFQRSVPGHDNKMQFESSSYEGYFLASEKERDLFKLILKKEDELGDRSIMFTVQNED	0.6	0.18	0.25	1.12	1.09	0.64	0.67	0.2	0.16
yeast display IL-18 variant K53N, S55I (ligand) YFGKLESKLSVIRNLNDQVLFIDQGNRPLFEDMTDSDMRDNAPRTIFIISMYNDIQPRGMAVTISVKSEKISTLSSENKIISFKEMNPPDNIKDTKSDIIFFQRSVPGHDNKMQFESSSYEGYFLASEKERDLFKLILKKEDELGDRSIMFTVQNED	0.29	0.11	0.09	1.1	1	0.99	0.32	0.11	0.09
yeast display IL-18 variant K53D, S55N (ligand) YFGKLESKLSVIRNLNDQVLFIDQGNRPLFEDMTDSDMRDNAPRTIFIISMYDDNQPRGMAVTISVKSEKISTLSSENKIISFKEMNPPDNIKDTKSDIIFFQRSVPGHDNKMQFESSSYEGYFLASEKERDLFKLILKKEDELGDRSIMFTVQNED	0.47	0.12	0.09	0.95	1.05	1	0.45	0.13	0.09
yeast display IL-18 variant E6D, S36F, K53T, S55M, R58K (ligand) YFGKLDSKLSVIRNLNDQVLFIDQGNRPLFEDMTDFDMRDNAPRTIFIISMYTDMQPKGMAVTISVKSEKISTLSSENKIISFKEMNPPDNIKDTKSDIIFFQRSVPGHDNKMQFESSSYEGYFLASEKERDLFKLILKKEDELGDRSIMFTVQNED	0.5	0.14	0.09	0.96	1.02	0.96	0.48	0.14	0.09
yeast display IL-18 variant K53W, S55A (ligand) YFGKLESKLSVIRNLNDQVLFIDQGNRPLFEDMTDSDMRDNAPRTIFIISMYWDAQPRGMAVTISVKSEKISTLSSENKIISFKEMNPPDNIKDTKSDIIFFQRSVPGHDNKMQFESSSYEGYFLASEKERDLFKLILKKEDELGDRSIMFTVQNED	0.31	0.16	0.13	0.89	0.84	0.84	0.28	0.13	0.11
yeast display IL-18 variant T34I, S36T, D40A, N41M, K53T, S55Y (ligand) YFGKLESKLSVIRNLNDQVLFIDQGNRPLFEDMIDTDMRAMAPRTIFIISMYTDYQPRGMAVTISVKSEKISTLSSENKIISFKEMNPPDNIKDTKSDIIFFQRSVPGHDNKMQFESSSYEGYFLASEKERDLFKLILKKEDELGDRSIMFTVQNED	0.37	0.12	0.12	1.03	1.45	1.18	0.38	0.18	0.14
yeast display IL-18 variant K53G, S55I (ligand) YFGKLESKLSVIRNLNDQVLFIDQGNRPLFEDMTDSDMRDNAPRTIFIISMYGDIQPRGMAVTISVKSEKISTLSSENKIISFKEMNPPDNIKDTKSDIIFFQRSVPGHDNKMQFESSSYEGYFLASEKERDLFKLILKKEDELGDRSIMFTVQNED	0.76	0.19	0.13	0.77	0.73	0.7	0.59	0.14	0.09
yeast display IL-18 variant K53H, S55V (ligand) YFGKLESKLSVIRNLNDQVLFIDQGNRPLFEDMTDSDMRDNAPRTIFIISMYHDVQPRGMAVTISVKSEKISTLSSENKIISFKEMNPPDNIKDTKSDIIFFQRSVPGHDNKMQFESSSYEGYFLASEKERDLFKLILKKEDELGDRSIMFTVQNED	1.05	0.34	0.14	1.53	2.79	2.31	1.6	0.94	0.33
yeast display IL-18 variant L5W, I22M, K53N, S55Y, Q56H (ligand) YFGKWESKLSVIRNLNDQVLFMDQGNRPLFEDMTDSDMRDNAPRTIFIISMYNDYHPRGMAVTISVKSEKISTLSSENKIISFKEMNPPDNIKDTKSDIIFFQRSVPGHDNKMQFESSSYEGYFLASEKERDLFKLILKKEDELGDRSIMFTVQNED	0.72	0.23	0.21	1.05	0.91	0.61	0.75	0.21	0.13
yeast display IL-18 variant K53G, S55V (ligand) YFGKLESKLSVIRNLNDQVLFIDQGNRPLFEDMTDSDMRDNAPRTIFIISMYGDVQPRGMAVTISVKSEKISTLSSENKIISFKEMNPPDNIKDTKSDIIFFQRSVPGHDNKMQFESSSYEGYFLASEKERDLFKLILKKEDELGDRSIMFTVQNED	0.57	0.15	0.1	0.98	1.01	1.03	0.56	0.15	0.1
yeast display IL-18 variant S36E, D37E, D40K, N41T, K53T, S55Q, R104H (ligand) YFGKLESKLSVIRNLNDQVLFIDQGNRPLFEDMTDEEMRKTAPRTIFIISMYTDQQPRGMAVTISVKSEKISTLSSENKIISFKEMNPPDNIKDTKSDIIFFQHSVPGHDNKMQFESSSYEGYFLASEKERDLFKLILKKEDELGDRSIMFTVQNED	0.81	0.21	0.14	1	1.01	1.22	0.81	0.22	0.17
